Molecular target: T1, Human CD40 Ligand/TNFSF5 Protein, His, Flag Tag, active trimer (MALS verified) (human, UniProt P29965 108-261, limits assumed)
T1 construct: Bought protein, described as an active trimer; The order of the CD40L part and the tags is not known; also called CD40L protein; CD40L (Acro CDL-H52Db); not shown: His tag and Flag tag
T1 sequence (looked up): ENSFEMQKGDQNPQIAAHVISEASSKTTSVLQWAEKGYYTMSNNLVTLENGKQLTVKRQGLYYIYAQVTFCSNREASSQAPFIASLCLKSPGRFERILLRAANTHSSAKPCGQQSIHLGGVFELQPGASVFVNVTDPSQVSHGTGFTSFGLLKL
Assay: bio-layer interferometry (ForteBio); antibody 100 nM, human CD40L 100 nM, 30 C

Binder | Kd
Hz33B9C5 (antibody, human IgG1, kappa, L234A L235A, V domains shown, Expressed in ExpiCHO cells; also called Antibody Hz33B9C5; humanized anti-CD40L antibody Hz33B9C5) VH: QVQLVESGGGLVKPGGSLRLSCAASGFTFSDYYMYWIRQAPGKGLEWVSTISGGGTYTYSPDSVKGRFTISRDNAKNSLYLQMNSLRAEDTAVYYCARGEPGLAYWGQGTLVTVSS VL: DIVMTQSPDSLAVSLGERATINCKASQSVDYYGDSYMHWYQQKPGQPPKLLIYASSNLESGVPDRFSGSGSGTDFTLTISSLQAEDVAVYYCQQSHEDPWTFGGGTKVEIKR | 0.297 nM
Hz47E2 (antibody, human IgG1, kappa, L234A L235A, V domains shown, Expressed in ExpiCHO cells; also called Antibody Hz47E2; humanized anti-CD40L antibody Hz47E2) VH: EVQLVESGGGLVKPGGSLRLSCAASGFTFSDYAMSWVRQAPGKGLEWVSEISTVHTYTYYSDAVAGRFTISRDNAKNSLYLQMNSLRAEDTAVYYCARDRVLDYWGQGTLVTVSS VL: DIVMTQSPDSLAVSLGERATINCRASESVEYYDTSLMQWYQQKPGQPPKLLIYAASNLESGVPDRFSGSGSGTDFTLTISSLQAEDVAVYYCQQTKKLPWTFGQGTKVEIKR | 0.315 nM
